Results: paper PMC6428754, “Peptidoglycan Remodeling Enables Escherichia coli To Survive Severe Outer Membrane Assembly Defect” (mBio, 2019)

Biological target: T1, oligohistidine-tagged PBP1B (E. coli, UniProt P02919 1-844)
T1 construct: PBP1B, bifunctional peptidoglycan synthase (glycosyltransferase and DD-transpeptidase) of Escherichia coli; source: purified
T1 sequence (looked up): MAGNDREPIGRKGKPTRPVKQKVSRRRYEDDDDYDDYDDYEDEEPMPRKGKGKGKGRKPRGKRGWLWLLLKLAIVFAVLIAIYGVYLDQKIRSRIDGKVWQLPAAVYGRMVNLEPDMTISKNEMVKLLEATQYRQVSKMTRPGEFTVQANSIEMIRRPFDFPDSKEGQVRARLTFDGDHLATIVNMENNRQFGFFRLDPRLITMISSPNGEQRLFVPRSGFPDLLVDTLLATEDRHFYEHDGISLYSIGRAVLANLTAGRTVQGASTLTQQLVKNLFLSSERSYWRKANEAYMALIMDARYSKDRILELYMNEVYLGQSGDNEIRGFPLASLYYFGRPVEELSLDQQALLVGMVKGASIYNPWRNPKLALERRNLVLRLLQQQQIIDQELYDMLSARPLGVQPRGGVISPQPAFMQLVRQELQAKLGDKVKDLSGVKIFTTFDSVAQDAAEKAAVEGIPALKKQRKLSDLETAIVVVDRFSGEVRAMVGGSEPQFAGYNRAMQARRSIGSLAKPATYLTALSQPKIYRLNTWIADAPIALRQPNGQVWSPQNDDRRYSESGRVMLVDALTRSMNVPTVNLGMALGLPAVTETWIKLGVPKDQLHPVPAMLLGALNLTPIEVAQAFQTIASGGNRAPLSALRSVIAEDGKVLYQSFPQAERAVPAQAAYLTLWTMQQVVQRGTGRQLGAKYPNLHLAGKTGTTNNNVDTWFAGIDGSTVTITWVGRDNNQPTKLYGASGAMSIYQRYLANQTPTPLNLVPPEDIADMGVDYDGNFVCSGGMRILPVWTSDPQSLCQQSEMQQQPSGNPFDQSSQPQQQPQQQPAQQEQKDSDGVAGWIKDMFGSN
Experiment: MST; microscale thermophoresis curves; means ± SD from three independent experiments; which partner was labelled is not told (Text S1)
Conditions: both partners purified

Kd: 112 nM
B1: LdtD (LD-transpeptidase, formerly YcbB), untagged (enzyme, E. coli, UniProt P22525 1-615, looked up)
chain: MLLNMMCGRQLSAISLCLAVTFAPLFNAQADEPEVIPGDSPVAVSEQGEALPQAQATAIMAGIQPLPEGAAEKARTQIESQLPAGYKPVYLNQLQLLYAARDMQPMWENRDAVKAFQQQLAEVAIAGFQPQFNKWVELLTDPGVNGMARDVVLSDAMMGYLHFIANIPVKGTRWLYSSKPYALATPPLSVINQWQLALDKGQLPTFVAGLAPQHPQYAAMHESLLALLCDTKPWPQLTGKATLRPGQWSNDVPALREILQRTGMLDGGPKITLPGDDTPTDAVVSPSAVTVETAETKPMDKQTTSRSKPAPAVRAAYDNELVEAVKRFQAWQGLGADGAIGPATRDWLNVTPAQRAGVLALNIQRLRLLPTELSTGIMVNIPAYSLVYYQNGNQVLDSRVIVGRPDRKTPMMSSALNNVVVNPPWNVPPTLARKDILPKVRNDPGYLESHGYTVMRGWNSREAIDPWQVDWSTITASNLPFRFQQAPGPRNSLGRYKFNMPSSEAIYLHDTPNHNLFKRDTRALSSGCVRVNKASDLANMLLQDAGWNDKRISDALKQGDTRYVNIRQSIPVNLYYLTAFVGADGRTQYRTDIYNYDLPARSSSQIVSKAEQLIR
notes: LdtD (formerly YcbB), LD-transpeptidase of Escherichia coli; Printed as 'untagged LdtD'; source: purified
